Results taken from patent US20190270817A1.

How the values were obtained:
[1] = target: cynoPD1(1-167)-Flag-His (UniProt Q15116); assay: Octet
[2] = target: human IL-21R, recombinant soluble (FLAG-His or Fc, not stated which) (human) (UniProt Q9HBE5); assay: not stated in the table (Octet per Example 11)
[3] = target: human PD-1(1-170)-FLAG-His (human) (UniProt Q15116); assay: not stated in the table (Octet per Example 11)
[4] = target: human PD-1 on cells (human) (UniProt Q15116); assay: cell-based or functional assay
Chain of human PD-1 on cells (human) (Q15116 25-288 limits assumed): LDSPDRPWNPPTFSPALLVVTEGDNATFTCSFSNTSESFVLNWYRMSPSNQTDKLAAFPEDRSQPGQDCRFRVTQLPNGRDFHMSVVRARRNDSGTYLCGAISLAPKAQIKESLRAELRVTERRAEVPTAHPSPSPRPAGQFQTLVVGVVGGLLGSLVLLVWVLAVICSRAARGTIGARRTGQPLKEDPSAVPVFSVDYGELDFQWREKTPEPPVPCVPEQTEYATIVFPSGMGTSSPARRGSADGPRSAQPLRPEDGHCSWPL

[5] = target: IL-21R on Hut78 T cells (UniProt Q9HBE5); assay: cell-based or functional assay
Chain of IL-21R on Hut78 T cells (Q9HBE5 20-538 limits assumed): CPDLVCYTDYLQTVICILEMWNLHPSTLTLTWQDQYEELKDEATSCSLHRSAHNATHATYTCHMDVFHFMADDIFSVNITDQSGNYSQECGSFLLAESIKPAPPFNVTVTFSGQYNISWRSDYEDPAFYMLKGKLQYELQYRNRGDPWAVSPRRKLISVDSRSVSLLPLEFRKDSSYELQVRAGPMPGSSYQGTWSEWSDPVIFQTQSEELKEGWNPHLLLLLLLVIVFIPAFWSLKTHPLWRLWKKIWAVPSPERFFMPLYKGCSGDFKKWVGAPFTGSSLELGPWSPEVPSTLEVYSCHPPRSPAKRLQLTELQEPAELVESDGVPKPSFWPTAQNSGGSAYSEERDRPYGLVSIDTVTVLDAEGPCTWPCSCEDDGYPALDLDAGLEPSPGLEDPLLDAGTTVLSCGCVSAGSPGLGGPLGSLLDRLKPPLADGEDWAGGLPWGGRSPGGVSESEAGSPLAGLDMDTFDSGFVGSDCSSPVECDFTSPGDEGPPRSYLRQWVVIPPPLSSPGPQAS

[6] = target: IL-21R-Fc (UniProt Q9HBE5); assay: ForteBio Octet
Chain of IL-21R-Fc (Q9HBE5 20-232 limits assumed): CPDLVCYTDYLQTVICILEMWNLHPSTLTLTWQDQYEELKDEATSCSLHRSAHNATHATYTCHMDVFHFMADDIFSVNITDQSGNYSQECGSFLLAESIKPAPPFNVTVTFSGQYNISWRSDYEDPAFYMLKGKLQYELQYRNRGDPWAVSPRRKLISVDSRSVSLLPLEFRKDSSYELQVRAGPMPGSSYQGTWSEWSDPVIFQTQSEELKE

[7] = target: human IL-21R-FLAG-His (monovalent) (human) (UniProt Q9HBE5); assay: Octet, immobilized monovalent IL-21R-his
Chain of human IL-21R-FLAG-His (monovalent) (human) (Q9HBE5 20-232 limits assumed): as above

[8] = target: cynomolgus monkey IL-21R-FLAG-His (monovalent) (cynomolgus monkey) (UniProt G7Q0S8); assay: Octet, immobilized monovalent IL-21R-his
[9] = target: human PD-1(1-170)-FLAG-His (human) (UniProt Q15116); assay: Octet, fusion amine-coupled to tips
[10] = target: cynomolgus monkey PD-1(1-167)-FLAG-His (cynomolgus monkey); assay: Octet, fusion amine-coupled to tips
Chain of cynomolgus monkey PD-1(1-167)-FLAG-His (cynomolgus monkey) (Q15116 other isoform, or with tags, fused parts or gaps): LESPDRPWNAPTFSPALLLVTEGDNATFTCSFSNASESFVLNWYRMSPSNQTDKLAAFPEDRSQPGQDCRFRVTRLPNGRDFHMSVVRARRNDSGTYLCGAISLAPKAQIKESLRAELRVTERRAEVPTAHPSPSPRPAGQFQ

Chain of human PD-1(1-170)-FLAG-His (human) (Q15116 21-170 limits assumed): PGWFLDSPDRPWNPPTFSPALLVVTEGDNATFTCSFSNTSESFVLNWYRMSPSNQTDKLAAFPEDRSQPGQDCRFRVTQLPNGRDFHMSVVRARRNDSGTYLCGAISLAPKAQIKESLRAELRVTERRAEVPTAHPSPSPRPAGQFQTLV
Chain of cynoPD1(1-167)-Flag-His (Q15116 other isoform, or with tags, fused parts or gaps): as the sequence (Q15116 other isoform, or with tags, fused parts or gaps) above
Chain of human IL-21R, recombinant soluble (FLAG-His or Fc, not stated which) (human) (Q9HBE5 20-232 limits assumed): as the sequence (Q9HBE5 20-232 limits assumed) above

| Kd [6] | other results | Substance |
| --- | --- | --- |
|  | Kd [1]: 3.5 nM | Nivo huIgG1 mAb |
|  | Kd [2]: > 300 nM; Kd [3]: 2.6 nM; PD-1 reporter Interpolated EC50 [4]: 1.61 nM; Hut78 PD1 (+) Interpolated EC50 [5]: 1.97 nM; Hut78 PD-1 (-) Interpolated EC50 [5]: > 1000 nM | PD1 mAb x R9E:R76A monomer (chimera, mouse IgG1 constant region, C-terminal human IL-21 R9E:R76A) |
| 0.439 nM |  | PD-1 mAb x IL-21 D15A (Mutant c6) (from UniProt Q9HBE4 30-162) |
| 0.249 nM |  | PD-1 mAb x IL-21 D15E (Mutant c7) (from UniProt Q9HBE4 30-162) |
| 0.163 nM |  | PD-1 mAb x IL-21 D15M (Mutant c9) (from UniProt Q9HBE4 30-162) |
| 11 nM |  | PD-1 mAb x IL-21 D15N (Mutant C10) (from UniProt Q9HBE4 30-162) |
| 6.6 nM |  | PD-1 mAb x IL-21 D15S (Mutant C12) (from UniProt Q9HBE4 30-162) |
| 5.47 nM |  | PD-1 mAb x IL-21 D15V (Mutant C14) (from UniProt Q9HBE4 30-162) |
| 4 nM |  | PD-1 mAb x IL-21 I8S (Mutant 20) (from UniProt Q9HBE4 30-162) |
| 0.166 nM |  | PD-1 mAb x IL-21 I14S (Mutant c5) (from UniProt Q9HBE4 30-162) |
| 0.094 nM |  | PD-1 mAb x IL-21 I16D (Mutant 44) (from UniProt Q9HBE4 30-162) |
| 0.677 nM |  | PD-1 mAb x IL-21 I66D (Mutant 51) (from UniProt Q9HBE4 30-162) |
| 4.55 nM |  | PD-1 mAb x IL-21 I66G (Mutant 52) (from UniProt Q9HBE4 30-162) |
| 7.11 nM |  | PD-1 mAb x IL-21 I66P (Mutant 53) (from UniProt Q9HBE4 30-162) |
| 0.235 nM |  | PD-1 mAb x IL-21 K72D (Mutant 60) (from UniProt Q9HBE4 30-162) |
| 0.25 nM |  | PD-1 mAb x IL-21 K72G (Mutant 61) (from UniProt Q9HBE4 30-162) |
| 8.96 nM |  | PD-1 mAb x IL-21 K72P (Mutant 62) (from UniProt Q9HBE4 30-162) |
| 0.0525 nM |  | PD-1 mAb x IL-21 K73A (Mutant 63) (from UniProt Q9HBE4 30-162) |
| 0.435 nM |  | PD-1 mAb x IL-21 K73D (Mutant 64) (from UniProt Q9HBE4 30-162) |

| Kd [6] | other results | Substance |
| --- | --- | --- |
| 0.253 nM |  | PD-1 mAb x IL-21 K73G (Mutant 66) (from UniProt Q9HBE4 30-162) |
| 0.172 nM |  | PD-1 mAb x IL-21 K73I (Mutant 68) (from UniProt Q9HBE4 30-162) |
| 0.167 nM |  | PD-1 mAb x IL-21 K73S (Mutant 72) (from UniProt Q9HBE4 30-162) |
| 0.163 nM |  | PD-1 mAb x IL-21 K75G (Mutant 75) (from UniProt Q9HBE4 30-162) |
| 0.658 nM |  | PD-1 mAb x IL-21 K77G (Mutant 94) (from UniProt Q9HBE4 30-162) |
| 11 nM |  | PD-1 mAb x IL-21 L13D (Mutant 43) (from UniProt Q9HBE4 30-162) |
| 1.23 nM |  | PD-1 mAb x IL-21 P78D (Mutant 96) (from UniProt Q9HBE4 30-162) |
| 0.42 nM |  | PD-1 mAb x IL-21 Q12D (Mutant 37) (from UniProt Q9HBE4 30-162) |
| 0.031 nM |  | PD-1 mAb x IL-21 Q12E (Mutant 38) (from UniProt Q9HBE4 30-162) |
| 0.38 nM |  | PD-1 mAb x IL-21 Q12N (Mutant 39) (from UniProt Q9HBE4 30-162) |
| < 0.26 nM |  | PD-1 mAb x IL-21 Q12T (Mutant 41) (from UniProt Q9HBE4 30-162) |
| 0.17 nM |  | PD-1 mAb x IL-21 Q19D (Mutant 46) (from UniProt Q9HBE4 30-162) |
| 7.95 nM |  | PD-1 mAb x IL-21 Q116E (Mutant C21) (from UniProt Q9HBE4 30-162) |
| 0.237 nM |  | PD-1 mAb x IL-21 R5A (Mutant 100) (from UniProt Q9HBE4 30-162) |
| 6.84 nM |  | PD-1 mAb x IL-21 R9A (Mutant 21) (from UniProt Q9HBE4 30-162) |
| > 100 nM |  | PD-1 mAb x IL-21 R9D (Mutant 22) (from UniProt Q9HBE4 30-162) |
| 40 nM |  | PD-1 mAb x IL-21 R9G (Mutant 24) (from UniProt Q9HBE4 30-162) |
| 0.63 nM |  | PD-1 mAb x IL-21 R9Y (Mutant 35) (from UniProt Q9HBE4 30-162) |
| 0.411 nM |  | PD-1 mAb x IL-21 R11D (Mutant c1) (from UniProt Q9HBE4 30-162) |

| Kd [6] | other results | Substance |
| --- | --- | --- |
| 0.9 nM |  | PD-1 mAb x IL-21 R65P (Mutant 50) (from UniProt Q9HBE4 30-162) |
|  | Kd [7]: > 10 nM; Kd [8]: > 10 nM | PD-1 mAb x IL-21 R76A (Mutant 77) |
| 12 nM |  | PD-1 mAb x IL-21 R76D (Mutant 78) (from UniProt Q9HBE4 30-162) |
|  | Kd [7]: > 10 nM; Kd [8]: > 10 nM | PD-1 mAb x IL-21 R76E (Mutant 79) |
| 0.6 nM |  | PD-1 mAb x IL-21 R76M (Mutant 85) (from UniProt Q9HBE4 30-162) |
| 15.3 nM |  | PD-1 mAb x IL-21 R76N (Mutant 86) (from UniProt Q9HBE4 30-162) |
| 0.4 nM |  | PD-1 mAb x IL-21 R76P (Mutant 87) (from UniProt Q9HBE4 30-162) |
| 0.265 nM |  | PD-1 mAb x IL-21 R76Y (Mutant 92) (from UniProt Q9HBE4 30-162) |
| 0.518 nM |  | PD-1 mAb x IL-21 S70G (Mutant 58) (from UniProt Q9HBE4 30-162) |
| 10 nM |  | PD-1 mAb x IL-21 S70P (Mutant 59) (from UniProt Q9HBE4 30-162) |
| 0.237 nM |  | PD-1 mAb x IL-21 S70Y (Mutant 101) (from UniProt Q9HBE4 30-162) |
| 0.265 nM |  | PD-1 mAb x IL-21 S80G (Mutant 98) (from UniProt Q9HBE4 30-162) |
| 8.1 nM |  | PD-1 mAb x IL-21 S113K (Mutant C18) (from UniProt Q9HBE4 30-162) |
| 0.0395 nM |  | PD-1 mAb x IL-21 V69D (Mutant 54) (from UniProt Q9HBE4 30-162) |
|  | pSTAT3 EC50, Hut78/PD-1 [5]: 341 pM | anti-PD-1 mAb fused to an IL-21 (R5Q:R76E) mutein (monomer) |
|  | Kd [9]: 7 nM; Kd [10]: 5.9 nM; pSTAT3 EC50, Hut78 PD-1+ T cells (n1) [5]: 1.98 nM; pSTAT3 EC50, Hut78 PD-1+ T cells (n2) [5]: 1.49 nM; pSTAT3 EC50, Hut78 PD-1- T cells (n1) [5]: > 1000 nM; pSTAT3 EC50, Hut78 PD-1- T cells (n2) [5]: > 1000 nM; Kd [7]: > 300 nM; Kd [8]: > 300 nM | anti-PD-1 mAb x IL-21 R5E:R76A homodimer fusion |
|  | Kd [7]: > 300 nM; Kd [8]: > 300 nM | anti-PD-1 mAb x IL-21 R5Q:R76E homodimer fusion |
|  | Kd [9]: 8.9 nM; Kd [10]: 5.9 nM; pSTAT3 EC50, Hut78 PD-1+ T cells (n1) [5]: 16.6 nM; pSTAT3 EC50, Hut78 PD-1- T cells (n1) [5]: > 1000 nM; pSTAT3 EC50, Hut78 PD-1- T cells (n2) [5]: > 1000 nM; Kd [7]: > 300 nM; Kd [8]: > 300 nM | anti-PD-1 mAb x IL-21 R9E:R76A homodimer fusion |
|  | pSTAT3 EC50, Hut78/TIGIT [5]: 1390 pM | anti-TIGIT mAb fused to an IL-21 (R5Q:R76E) mutein (dimer) |
